Laboratory results from patent US20020160955A1 (published 2002).

Assays:
Assay in all cases: competitive phage ELISA
[1] = target: T1, Ala(1-3)-IGF-I displayed on phage (human; bacteriophage M13, UniProt P69168 267-424)
T1 chain: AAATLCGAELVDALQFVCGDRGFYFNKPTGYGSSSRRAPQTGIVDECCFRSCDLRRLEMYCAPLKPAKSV
Experimental: (§1) Phage particles were harvested and resuspended in PBS buffer as described in Lowman, H. B., “Phage Display of Peptide Libraries on Protein Scaffolds,” in Cabilly, S. (ed.), Combinatorial Peptide Library Protocols (Humana Press Inc.: Totowa, N.J., 1998), pp. 249-264. Then phage concentrations were normalized to yield a maximal ELISA signal of 0.2-0.4 for each mutant (Lowman, in Cabilly, S. (ed.), supra). Threefold serial dilutions of soluble competitor were prepared on non-absorbent microtiter plates (Nunc, F, 96 wells) with binding buffer (0.5% TWEEN™ 20/PBS) containing phage at the previously-determined concentrations. […] After blocking, the plates containing immobilized target were washed with 0.05% TWEEN™/PBS buffer and subsequently incubated with 80 μl/well of the premixed phage-competitor solutions for 1 hour at room temperature. After washing, bound phage was detected with 80 μl/well of a solution containing a primary rabbit anti-phage polyclonal antibody and a secondary goat anti-rabbit monoclonal antibody-horseradish peroxidase conjugate in 0.5% TWEEN 20™/PBS. o-Phenylenediamine (Sigma) and tetramethylbenzidine (Kirkegaard and Perry) were used as chromogenic substrates, resulting in product detection at 492 and 450 nm, respectively. IC₅₀ values were determined by fitting the binding data to a generic saturation curve (Lowman, in Cabilly, S. (ed.), supra). […] Numbers in Table I represent mean +standard deviation of individually assessed IC₅₀ values.
(§2) At least two different clones of every mutant were tested.

[2] = target: T2, IGF-I D12A (G1S-A70V background) displayed on phage (human; bacteriophage M13)
T2 construct: monovalent M13 phage display
T2 chain: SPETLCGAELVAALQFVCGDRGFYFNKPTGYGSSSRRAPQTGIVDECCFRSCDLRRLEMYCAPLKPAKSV
Experimental: as §1, §2

[3] = target: T3, IGF-I Q15A (G1S-A70V background) displayed on phage (human; bacteriophage M13)
T3 construct: monovalent M13 phage display
T3 chain: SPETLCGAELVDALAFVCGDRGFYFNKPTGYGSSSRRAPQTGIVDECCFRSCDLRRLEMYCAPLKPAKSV
Experimental: as §1, §2

[4] = target: T4, IGF-I D20A (G1S-A70V background) displayed on phage (human; bacteriophage M13, not fully specified; Displayed monovalently on M13 phage as a C-terminal fusion to the gene III fragment, which is left out of the letters.)
T4 construct: monovalent M13 phage display; not shown: Display carrier: M13 gene III fragment (residues 249-406) and its junction
T4 chain: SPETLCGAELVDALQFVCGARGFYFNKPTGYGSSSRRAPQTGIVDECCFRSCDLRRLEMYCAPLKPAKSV
Experimental: as §1, §2

[5] = target: T5, IGF-I F23A (G1S-A70V background) displayed on phage (human; bacteriophage M13, not fully specified; Displayed monovalently on M13 phage as a C-terminal fusion to the gene III fragment, which is left out of the letters.)
T5 construct: monovalent M13 phage display; not shown: Display carrier: M13 gene III fragment (residues 249-406) and its junction
T5 chain: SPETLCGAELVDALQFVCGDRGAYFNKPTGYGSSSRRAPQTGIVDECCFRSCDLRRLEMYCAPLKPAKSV
Experimental: as §1, §2

[6] = target: T6, IGF-I P28A (G1S-A70V background) displayed on phage (human; bacteriophage M13)
T6 construct: monovalent M13 phage display; not shown: M13 gene III fragment (residues 249-406, display partner) and the junction to it
T6 chain: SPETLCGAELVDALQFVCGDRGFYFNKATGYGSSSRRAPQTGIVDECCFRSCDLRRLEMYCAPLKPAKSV
Experimental: as §1, §2

[7] = target: T7, IGF-I T29A (G1S-A70V background) displayed on phage (human; bacteriophage M13)
T7 construct: monovalent M13 phage display; not shown: M13 gene III fragment (residues 249-406, display partner) and the junction to it
T7 chain: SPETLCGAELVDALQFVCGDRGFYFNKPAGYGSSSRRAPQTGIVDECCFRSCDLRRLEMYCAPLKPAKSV
Experimental: as §1, §2

[8] = target: T8, IGF-I G1S-A70V displayed on phage (human; bacteriophage M13)
T8 construct: monovalent M13 phage display; template of the alanine scan; also called G1S-A70V IGF-I; wild-type-like IGF-I variant; not shown: M13 gene III fragment (residues 249-406, display partner) and the junction to it
Experimental: as §1, §2

[9] = target: T9, IGF-I G32A (G1S-A70V background) displayed on phage (human; bacteriophage M13)
T9 construct: monovalent M13 phage display; not shown: M13 gene III fragment (residues 249-406, display partner) and the junction to it
T9 chain: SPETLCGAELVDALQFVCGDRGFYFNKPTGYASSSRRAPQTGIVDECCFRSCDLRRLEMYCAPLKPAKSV
Experimental: as §1, §2

[10] = target: T10, IGF-I S34A (G1S-A70V background) displayed on phage (human; bacteriophage M13)
T10 construct: monovalent M13 phage display; not shown: M13 gene III fragment (residues 249-406, display partner) and the junction to it
T10 chain: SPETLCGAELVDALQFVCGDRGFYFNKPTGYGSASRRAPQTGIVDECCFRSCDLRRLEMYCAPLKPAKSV
Experimental: as §1, §2

[11] = target: T11, IGF-I R37A (G1S-A70V background) displayed on phage (human; bacteriophage M13)
T11 construct: monovalent M13 phage display
T11 chain: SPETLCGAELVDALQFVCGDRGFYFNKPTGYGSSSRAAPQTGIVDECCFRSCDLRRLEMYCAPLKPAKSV
Experimental: as §1, §2

[12] = target: T12, IGF-I T41A (G1S-A70V background) displayed on phage (human; bacteriophage M13)
T12 construct: monovalent M13 phage display
T12 chain: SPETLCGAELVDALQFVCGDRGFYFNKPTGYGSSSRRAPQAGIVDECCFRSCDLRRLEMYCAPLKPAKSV
Experimental: as §1, §2

[13] = target: T13, IGF-I R50A (G1S-A70V background) displayed on phage (human; bacteriophage M13)
T13 construct: monovalent M13 phage display
T13 chain: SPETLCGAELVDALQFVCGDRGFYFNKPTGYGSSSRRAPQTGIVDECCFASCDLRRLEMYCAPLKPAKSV
Experimental: as §1, §2

[14] = target: T14, IGF-I L64A (G1S-A70V background) displayed on phage (human; bacteriophage M13)
T14 construct: monovalent M13 phage display; not shown: M13 gene III protein fragment (residues 249-406), the phage display carrier, and its junction to IGF-I
T14 chain: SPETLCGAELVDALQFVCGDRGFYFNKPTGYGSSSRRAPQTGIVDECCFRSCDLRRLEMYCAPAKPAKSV
Experimental: as §1, §2

B1: human IGFBP-1 (other, UniProt P08833 26-259, looked up)
chain: APWQCAPCSAEKLALCPPVSASCSEVTRSAGCGCCPMCALPLGAACGVATARCARGLSCRALPGEQQPLHALTRGQGACVQESDASAPHAAEAGSPESPESTEITEEELLDNFHLMAPSEEDHSILWDAISTYDGSKALHVTNIKKWKEPCRIELYRVVESLAKAQETSGEEISKFYLPNCNKNGFYHSRQCETSMDGEAGLCWCVYPWNGKRIPGSPEIRGDPNCQIYFNVQN
notes: secreted recombinant protein purified from conditioned medium
B1 gave an IC50 [1] of 90.4 nM, an IC50 [2] of 4.3 nM and an IC50 [3] of 13.9 nM. For the same binder, the IC50 [4] was 8.4 nM, the IC50 [5] was 10.9 nM and the IC50 [6] was 9.3 nM. For the same binder, the IC50 [7] was 7.3 nM, the IC50 [8] was 8.2 nM and the IC50 [9] was 10.9 nM. For the same binder, the IC50 [10] was 9.5 nM, the IC50 [11] was 12.3 nM and the IC50 [12] was 13.7 nM. For the same binder, the IC50 [13] was 16.2 nM and the IC50 [14] was 12.1 nM.
